Measured values as given in article doi:10.1101/2022.10.10.511565.

Molecular target: Lon-His (C. crescentus) (UniProt B8GX12)
Chain of UniProt B8GX12 (B8GX12 whole entry): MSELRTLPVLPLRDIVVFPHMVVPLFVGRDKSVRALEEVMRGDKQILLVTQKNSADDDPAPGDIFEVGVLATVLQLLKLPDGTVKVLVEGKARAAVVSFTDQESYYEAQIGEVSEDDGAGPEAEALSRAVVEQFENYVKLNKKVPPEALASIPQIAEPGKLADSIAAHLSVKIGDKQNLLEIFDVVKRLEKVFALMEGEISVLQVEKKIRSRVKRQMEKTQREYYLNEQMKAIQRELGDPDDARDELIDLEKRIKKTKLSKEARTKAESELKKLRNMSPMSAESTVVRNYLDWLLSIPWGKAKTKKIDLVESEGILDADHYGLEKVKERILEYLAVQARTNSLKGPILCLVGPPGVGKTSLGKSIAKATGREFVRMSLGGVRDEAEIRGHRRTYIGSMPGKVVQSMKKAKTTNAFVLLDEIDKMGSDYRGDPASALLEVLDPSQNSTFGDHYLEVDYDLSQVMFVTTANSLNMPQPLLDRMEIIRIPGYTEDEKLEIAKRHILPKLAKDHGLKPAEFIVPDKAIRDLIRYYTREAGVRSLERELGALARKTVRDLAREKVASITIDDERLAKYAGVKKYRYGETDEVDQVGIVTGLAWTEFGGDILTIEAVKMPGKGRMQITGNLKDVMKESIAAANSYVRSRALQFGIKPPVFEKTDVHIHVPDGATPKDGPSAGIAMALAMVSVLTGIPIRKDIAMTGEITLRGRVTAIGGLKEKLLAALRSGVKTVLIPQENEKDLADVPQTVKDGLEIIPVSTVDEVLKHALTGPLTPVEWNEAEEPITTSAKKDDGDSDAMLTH

Km of His-SciP degradation by Lon-His (0.05 µM hexamer), without LarA: 9.3 µM
Substance: His-SciP (natural protein)
